Laboratory results reported in publication PMC10397247.
Read-outs that look alike come from different tables or passages of the source. Blank lines part the entries; values can stand above or below the binder they belong to.

Legend:
Test in all cases: two-hybrid library CCmax;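 note: natural log of median RNA to DNA barcode read ratio; higher means stronger binding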
[1] = target: T1, 4H656-AA
T1 chain: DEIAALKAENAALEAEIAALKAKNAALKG

[2] = target: T2, 4H675-AA
T2 chain: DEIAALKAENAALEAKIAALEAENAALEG

[3] = target: T3, 4H971-AA; conditions: mean of both orientations
T3 chain: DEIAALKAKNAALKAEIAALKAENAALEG

[4] = target: T4, 4H3844-AA
T4 chain: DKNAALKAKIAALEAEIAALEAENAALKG

[5] = target: T5, 4H3921-AA; conditions: mean of both orientations
T5 chain: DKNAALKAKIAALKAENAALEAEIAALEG

[6] = target: T6, 4H429-AA; conditions: mean of both orientations
T6 chain: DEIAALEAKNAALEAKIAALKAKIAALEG

[7] = target: T7, 4H454-AA; conditions: mean of both orientations
T7 chain: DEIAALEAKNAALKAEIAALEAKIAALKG

[8] = target: T8, 4H48-AA; conditions: mean of both orientations
T8 chain: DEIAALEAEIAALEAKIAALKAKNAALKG

[9] = target: T9, 4H566-AA; conditions: mean of both orientations
T9 chain: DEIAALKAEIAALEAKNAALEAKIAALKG

[10] = target: T10, 4H605-AA; conditions: mean of both orientations
T10 chain: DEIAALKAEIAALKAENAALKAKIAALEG

[11] = target: T11, 4H678-AA; conditions: mean of both orientations
T11 chain: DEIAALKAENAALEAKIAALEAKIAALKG

[12] = target: T12, 4H717-AA; conditions: mean of both orientations
T12 chain: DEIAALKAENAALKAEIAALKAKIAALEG

[13] = target: T13, 4H780-AA; conditions: mean of both orientations
T13 chain: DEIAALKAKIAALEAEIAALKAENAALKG

[14] = target: T14, 4H794-AA; conditions: mean of both orientations
T14 chain: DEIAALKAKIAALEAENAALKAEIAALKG

[15] = target: T15, 4H881-AA; conditions: mean of both orientations
T15 chain: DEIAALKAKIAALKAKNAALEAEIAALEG

[16] = target: T16, 4H906-AA; conditions: mean of both orientations
T16 chain: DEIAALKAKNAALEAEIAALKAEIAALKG

[17] = target: T17, 4H993-AA; conditions: mean of both orientations
T17 chain: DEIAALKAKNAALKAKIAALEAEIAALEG

[18] = target: T18, 4H342-AA
T18 chain: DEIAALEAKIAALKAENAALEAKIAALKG

[19] = target: T19, 4H3427-AA; conditions: mean of both orientations
T19 chain: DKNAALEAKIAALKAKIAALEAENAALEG

[20] = target: T20, 4H3606-AA; conditions: mean of both orientations
T20 chain: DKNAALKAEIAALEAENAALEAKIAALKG

[21] = target: T21, 4H3627-AA; conditions: mean of both orientations
T21 chain: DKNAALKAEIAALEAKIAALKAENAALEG

[22] = target: T22, 4H3655-AA; conditions: mean of both orientations
T22 chain: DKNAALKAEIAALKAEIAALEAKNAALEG

[23] = target: T23, 4H3753-AA
T23 chain: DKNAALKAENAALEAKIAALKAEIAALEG

[24] = target: T24, 4H3865-AA; conditions: mean of both orientations
T24 chain: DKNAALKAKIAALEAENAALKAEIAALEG

[25] = target: T25, 4H458-AA; conditions: mean of both orientations
T25 chain: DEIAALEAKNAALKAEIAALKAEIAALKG

[26] = target: T26, 4H485-AA; conditions: mean of both orientations
T26 chain: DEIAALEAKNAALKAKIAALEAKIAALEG

[27] = target: T27, 4H536-AA; conditions: mean of both orientations
T27 chain: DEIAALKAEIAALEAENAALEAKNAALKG

[28] = target: T28, 4H570-AA; conditions: mean of both orientations
T28 chain: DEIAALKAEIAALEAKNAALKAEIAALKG

[29] = target: T29, 4H629-AA; conditions: mean of both orientations
T29 chain: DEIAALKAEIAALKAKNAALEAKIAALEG

[30] = target: T30, 4H710-AA; conditions: mean of both orientations
T30 chain: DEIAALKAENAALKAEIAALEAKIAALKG

[31] = target: T31, 4H745-AA; conditions: mean of both orientations
T31 chain: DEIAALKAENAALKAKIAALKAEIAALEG

[32] = target: T32, 4H797-AA; conditions: mean of both orientations
T32 chain: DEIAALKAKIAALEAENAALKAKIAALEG

[33] = target: T33, 4H850-AA; conditions: mean of both orientations
T33 chain: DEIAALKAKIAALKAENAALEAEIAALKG

[34] = target: T34, 4H891-AA; conditions: mean of both orientations
T34 chain: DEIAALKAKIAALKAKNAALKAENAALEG

[35] = target: T35, 4H909-AA; conditions: mean of both orientations
T35 chain: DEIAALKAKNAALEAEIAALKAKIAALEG

[36] = target: T36, 4H930-AA; conditions: mean of both orientations
T36 chain: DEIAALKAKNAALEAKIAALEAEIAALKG

[37] = target: T37, 4H94-AA; conditions: mean of both orientations
T37 chain: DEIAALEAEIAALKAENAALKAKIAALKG

[38] = target: T38, 4H3410-AA
T38 chain: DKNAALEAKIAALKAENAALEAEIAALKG

[39] = target: T39, 4H3590-AA; conditions: mean of both orientations
T39 chain: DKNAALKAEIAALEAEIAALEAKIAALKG

[40] = target: T40, 4H3697-AA; conditions: mean of both orientations
T40 chain: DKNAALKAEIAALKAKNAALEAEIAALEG

[41] = target: T41, 4H497-AA
T41 chain: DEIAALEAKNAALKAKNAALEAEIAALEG

interaction score [1]: 0.334
interaction score ([2]; mean of both orientations): 0.797
interaction score [3]: 1.93
B1: 4H656-AA (peptide)
chain: DEIAALKAENAALEAEIAALKAKNAALKG

interaction score [18]: 1.54
interaction score [19]: -1.15
interaction score [20]: 1.55
interaction score [21]: 0.447
interaction score [22]: -0.61
interaction score ([4]; mean of both orientations): 0.569
interaction score [5]: 0.975
interaction score [6]: -0.49
interaction score [7]: 2.21
interaction score [8]: -0.491
interaction score [9]: 2.31
interaction score [10]: 1.41
interaction score [11]: 0.227
interaction score [12]: -1.4
interaction score [13]: -1.58
interaction score [14]: 1.25
interaction score [15]: 2.49
interaction score [16]: -1.52
interaction score [17]: 1.17
B3: 4H342-AA (peptide)
chain: DEIAALEAKIAALKAENAALEAKIAALKG

interaction score [23]: -0.536
interaction score [24]: -1.43
interaction score [25]: 1.56
interaction score [26]: 1.4
interaction score [27]: -1.2
interaction score [28]: -1
interaction score [29]: -1.7
interaction score [30]: 2.05
interaction score [31]: -0.67
interaction score [32]: -1.42
interaction score [33]: -2
interaction score [34]: -1.97
interaction score [35]: -0.932
interaction score [36]: -1.43
interaction score [37]: -1.45
B4: 4H3753-AA (peptide)
chain: DKNAALKAENAALEAKIAALKAEIAALEG

The next lines start with the binder.

B2: 4H3844-AA (peptide)
chain: DKNAALKAKIAALEAEIAALEAENAALKG
interaction score [4]: 0.661
interaction score [5]: -1.65
interaction score [6]: -0.665
interaction score [7]: -0.212
interaction score [8]: 1.16
interaction score [9]: -1.77
interaction score [10]: -1.48
interaction score [1]: -1.07
interaction score [11]: 0.663
interaction score [12]: -1.65
interaction score [13]: 0.995
interaction score [14]: -1.33
interaction score [15]: -0.992
interaction score [16]: -1.43
interaction score [17]: -1.76

B5: 4H3410-AA (peptide)
chain: DKNAALEAKIAALKAENAALEAEIAALKG
interaction score [38]: 0.0832
interaction score [39]: -0.698
interaction score [40]: -0.574
interaction score ([23]; mean of both orientations): -1.39
interaction score [24]: 0.873
interaction score [25]: 1.79
interaction score [26]: -0.0439
interaction score [27]: -1.39
interaction score [28]: 2.09
interaction score [29]: -1.53
interaction score [30]: -1.13
interaction score [31]: -0.581
interaction score [32]: -1.22
interaction score [33]: -0.83
interaction score [34]: -1.42
interaction score [35]: -1.45
interaction score [36]: -1.36
interaction score [37]: 1.3

B6: 4H497-AA (peptide)
chain: DEIAALEAKNAALKAKNAALEAEIAALEG
interaction score [41]: -1.57
interaction score ([1]; mean of both orientations): -1.34
interaction score [2]: -0.54
interaction score [3]: -2.19

B7: 4H675-AA (peptide)
chain: DEIAALKAENAALEAKIAALEAENAALEG
interaction score [2]: -1.72
interaction score [3]: 0.0439
